In article PMC7979749, “Structural basis of the dynamic human CEACAM1 monomer-dimer equilibrium” (Communications Biology, 2021):

B1: human CEACAM1 IgV domain, wildtype [human] / itself (parent)
chain: AQLTTESMPFNVAEGKEVLLLVHNLPQQLFGYSWYKGERVDGNRQIVGYAIGTQQATPGPANSGRETIYPNASLLIQNVTQNDTGFYTLQVIKSDLVNEEATGQFHVY

Variants of: B1
Assay: SEC-MALS
Settings: with itself; 100 μM protein; read off a plot

Point of comparison: AQLTTESMPFNVAEGKEVLLLVHNLPQQLFGYSWYKGERVDGNRQIVGYAIGTQQATPGPANSGRETIYPNASLLIQNVTQNDTGFYTLQVAKSDLVNEEATGQFHVY [chain 1 I92A], screen value 15000 Daltons. Against it:
- AQLTTESMPFNVAEGKEVLLLVHNLPQQLFGYSWYKGERADGNRQIVGYAIGTQQATPGPANSGRETIYPNASLLIQNVTQNDTGFYTLQVIKSDLVNEEATGQFHVY [chain 1 V40A] — higher, 19000 Daltons
- AQLTTESMPFNVAEGKEVLLLVHNLPQQLFGYSWYKGERVDGNRQIVGYAIGTQQATPGPANSGRETIYPNASLLIQNVTQNDTGFYTLQVIKSDLVNEAATGQFHVY [chain 1 E100A] — the same, 15000 Daltons
